Source: patent US7067646 (Dana-Farber, dated 2006)

Assays:
[1] = target: T1, MTAF600 (microtubule associated factor 600) (human, UniProt Q5T4S7 1-5183); assay: GST pull-down from HeLa nuclear extract, immunoblot
T1 construct: Native endogenous protein of HeLa nuclear extracts (5183 residues); also called MT-associated factor (MTAF) 600; 600 kDa subunit

[2] = target: T1, MTAF600 (microtubule associated factor …); assay: co-immunoprecipitation from HeLa extract, immunoblot
[3] = target: endogenous RB family proteins; assay: cell-based or functional assay

T1 sequence (Q5T4S7 other isoform, or with tags, fused parts or gaps limits assumed): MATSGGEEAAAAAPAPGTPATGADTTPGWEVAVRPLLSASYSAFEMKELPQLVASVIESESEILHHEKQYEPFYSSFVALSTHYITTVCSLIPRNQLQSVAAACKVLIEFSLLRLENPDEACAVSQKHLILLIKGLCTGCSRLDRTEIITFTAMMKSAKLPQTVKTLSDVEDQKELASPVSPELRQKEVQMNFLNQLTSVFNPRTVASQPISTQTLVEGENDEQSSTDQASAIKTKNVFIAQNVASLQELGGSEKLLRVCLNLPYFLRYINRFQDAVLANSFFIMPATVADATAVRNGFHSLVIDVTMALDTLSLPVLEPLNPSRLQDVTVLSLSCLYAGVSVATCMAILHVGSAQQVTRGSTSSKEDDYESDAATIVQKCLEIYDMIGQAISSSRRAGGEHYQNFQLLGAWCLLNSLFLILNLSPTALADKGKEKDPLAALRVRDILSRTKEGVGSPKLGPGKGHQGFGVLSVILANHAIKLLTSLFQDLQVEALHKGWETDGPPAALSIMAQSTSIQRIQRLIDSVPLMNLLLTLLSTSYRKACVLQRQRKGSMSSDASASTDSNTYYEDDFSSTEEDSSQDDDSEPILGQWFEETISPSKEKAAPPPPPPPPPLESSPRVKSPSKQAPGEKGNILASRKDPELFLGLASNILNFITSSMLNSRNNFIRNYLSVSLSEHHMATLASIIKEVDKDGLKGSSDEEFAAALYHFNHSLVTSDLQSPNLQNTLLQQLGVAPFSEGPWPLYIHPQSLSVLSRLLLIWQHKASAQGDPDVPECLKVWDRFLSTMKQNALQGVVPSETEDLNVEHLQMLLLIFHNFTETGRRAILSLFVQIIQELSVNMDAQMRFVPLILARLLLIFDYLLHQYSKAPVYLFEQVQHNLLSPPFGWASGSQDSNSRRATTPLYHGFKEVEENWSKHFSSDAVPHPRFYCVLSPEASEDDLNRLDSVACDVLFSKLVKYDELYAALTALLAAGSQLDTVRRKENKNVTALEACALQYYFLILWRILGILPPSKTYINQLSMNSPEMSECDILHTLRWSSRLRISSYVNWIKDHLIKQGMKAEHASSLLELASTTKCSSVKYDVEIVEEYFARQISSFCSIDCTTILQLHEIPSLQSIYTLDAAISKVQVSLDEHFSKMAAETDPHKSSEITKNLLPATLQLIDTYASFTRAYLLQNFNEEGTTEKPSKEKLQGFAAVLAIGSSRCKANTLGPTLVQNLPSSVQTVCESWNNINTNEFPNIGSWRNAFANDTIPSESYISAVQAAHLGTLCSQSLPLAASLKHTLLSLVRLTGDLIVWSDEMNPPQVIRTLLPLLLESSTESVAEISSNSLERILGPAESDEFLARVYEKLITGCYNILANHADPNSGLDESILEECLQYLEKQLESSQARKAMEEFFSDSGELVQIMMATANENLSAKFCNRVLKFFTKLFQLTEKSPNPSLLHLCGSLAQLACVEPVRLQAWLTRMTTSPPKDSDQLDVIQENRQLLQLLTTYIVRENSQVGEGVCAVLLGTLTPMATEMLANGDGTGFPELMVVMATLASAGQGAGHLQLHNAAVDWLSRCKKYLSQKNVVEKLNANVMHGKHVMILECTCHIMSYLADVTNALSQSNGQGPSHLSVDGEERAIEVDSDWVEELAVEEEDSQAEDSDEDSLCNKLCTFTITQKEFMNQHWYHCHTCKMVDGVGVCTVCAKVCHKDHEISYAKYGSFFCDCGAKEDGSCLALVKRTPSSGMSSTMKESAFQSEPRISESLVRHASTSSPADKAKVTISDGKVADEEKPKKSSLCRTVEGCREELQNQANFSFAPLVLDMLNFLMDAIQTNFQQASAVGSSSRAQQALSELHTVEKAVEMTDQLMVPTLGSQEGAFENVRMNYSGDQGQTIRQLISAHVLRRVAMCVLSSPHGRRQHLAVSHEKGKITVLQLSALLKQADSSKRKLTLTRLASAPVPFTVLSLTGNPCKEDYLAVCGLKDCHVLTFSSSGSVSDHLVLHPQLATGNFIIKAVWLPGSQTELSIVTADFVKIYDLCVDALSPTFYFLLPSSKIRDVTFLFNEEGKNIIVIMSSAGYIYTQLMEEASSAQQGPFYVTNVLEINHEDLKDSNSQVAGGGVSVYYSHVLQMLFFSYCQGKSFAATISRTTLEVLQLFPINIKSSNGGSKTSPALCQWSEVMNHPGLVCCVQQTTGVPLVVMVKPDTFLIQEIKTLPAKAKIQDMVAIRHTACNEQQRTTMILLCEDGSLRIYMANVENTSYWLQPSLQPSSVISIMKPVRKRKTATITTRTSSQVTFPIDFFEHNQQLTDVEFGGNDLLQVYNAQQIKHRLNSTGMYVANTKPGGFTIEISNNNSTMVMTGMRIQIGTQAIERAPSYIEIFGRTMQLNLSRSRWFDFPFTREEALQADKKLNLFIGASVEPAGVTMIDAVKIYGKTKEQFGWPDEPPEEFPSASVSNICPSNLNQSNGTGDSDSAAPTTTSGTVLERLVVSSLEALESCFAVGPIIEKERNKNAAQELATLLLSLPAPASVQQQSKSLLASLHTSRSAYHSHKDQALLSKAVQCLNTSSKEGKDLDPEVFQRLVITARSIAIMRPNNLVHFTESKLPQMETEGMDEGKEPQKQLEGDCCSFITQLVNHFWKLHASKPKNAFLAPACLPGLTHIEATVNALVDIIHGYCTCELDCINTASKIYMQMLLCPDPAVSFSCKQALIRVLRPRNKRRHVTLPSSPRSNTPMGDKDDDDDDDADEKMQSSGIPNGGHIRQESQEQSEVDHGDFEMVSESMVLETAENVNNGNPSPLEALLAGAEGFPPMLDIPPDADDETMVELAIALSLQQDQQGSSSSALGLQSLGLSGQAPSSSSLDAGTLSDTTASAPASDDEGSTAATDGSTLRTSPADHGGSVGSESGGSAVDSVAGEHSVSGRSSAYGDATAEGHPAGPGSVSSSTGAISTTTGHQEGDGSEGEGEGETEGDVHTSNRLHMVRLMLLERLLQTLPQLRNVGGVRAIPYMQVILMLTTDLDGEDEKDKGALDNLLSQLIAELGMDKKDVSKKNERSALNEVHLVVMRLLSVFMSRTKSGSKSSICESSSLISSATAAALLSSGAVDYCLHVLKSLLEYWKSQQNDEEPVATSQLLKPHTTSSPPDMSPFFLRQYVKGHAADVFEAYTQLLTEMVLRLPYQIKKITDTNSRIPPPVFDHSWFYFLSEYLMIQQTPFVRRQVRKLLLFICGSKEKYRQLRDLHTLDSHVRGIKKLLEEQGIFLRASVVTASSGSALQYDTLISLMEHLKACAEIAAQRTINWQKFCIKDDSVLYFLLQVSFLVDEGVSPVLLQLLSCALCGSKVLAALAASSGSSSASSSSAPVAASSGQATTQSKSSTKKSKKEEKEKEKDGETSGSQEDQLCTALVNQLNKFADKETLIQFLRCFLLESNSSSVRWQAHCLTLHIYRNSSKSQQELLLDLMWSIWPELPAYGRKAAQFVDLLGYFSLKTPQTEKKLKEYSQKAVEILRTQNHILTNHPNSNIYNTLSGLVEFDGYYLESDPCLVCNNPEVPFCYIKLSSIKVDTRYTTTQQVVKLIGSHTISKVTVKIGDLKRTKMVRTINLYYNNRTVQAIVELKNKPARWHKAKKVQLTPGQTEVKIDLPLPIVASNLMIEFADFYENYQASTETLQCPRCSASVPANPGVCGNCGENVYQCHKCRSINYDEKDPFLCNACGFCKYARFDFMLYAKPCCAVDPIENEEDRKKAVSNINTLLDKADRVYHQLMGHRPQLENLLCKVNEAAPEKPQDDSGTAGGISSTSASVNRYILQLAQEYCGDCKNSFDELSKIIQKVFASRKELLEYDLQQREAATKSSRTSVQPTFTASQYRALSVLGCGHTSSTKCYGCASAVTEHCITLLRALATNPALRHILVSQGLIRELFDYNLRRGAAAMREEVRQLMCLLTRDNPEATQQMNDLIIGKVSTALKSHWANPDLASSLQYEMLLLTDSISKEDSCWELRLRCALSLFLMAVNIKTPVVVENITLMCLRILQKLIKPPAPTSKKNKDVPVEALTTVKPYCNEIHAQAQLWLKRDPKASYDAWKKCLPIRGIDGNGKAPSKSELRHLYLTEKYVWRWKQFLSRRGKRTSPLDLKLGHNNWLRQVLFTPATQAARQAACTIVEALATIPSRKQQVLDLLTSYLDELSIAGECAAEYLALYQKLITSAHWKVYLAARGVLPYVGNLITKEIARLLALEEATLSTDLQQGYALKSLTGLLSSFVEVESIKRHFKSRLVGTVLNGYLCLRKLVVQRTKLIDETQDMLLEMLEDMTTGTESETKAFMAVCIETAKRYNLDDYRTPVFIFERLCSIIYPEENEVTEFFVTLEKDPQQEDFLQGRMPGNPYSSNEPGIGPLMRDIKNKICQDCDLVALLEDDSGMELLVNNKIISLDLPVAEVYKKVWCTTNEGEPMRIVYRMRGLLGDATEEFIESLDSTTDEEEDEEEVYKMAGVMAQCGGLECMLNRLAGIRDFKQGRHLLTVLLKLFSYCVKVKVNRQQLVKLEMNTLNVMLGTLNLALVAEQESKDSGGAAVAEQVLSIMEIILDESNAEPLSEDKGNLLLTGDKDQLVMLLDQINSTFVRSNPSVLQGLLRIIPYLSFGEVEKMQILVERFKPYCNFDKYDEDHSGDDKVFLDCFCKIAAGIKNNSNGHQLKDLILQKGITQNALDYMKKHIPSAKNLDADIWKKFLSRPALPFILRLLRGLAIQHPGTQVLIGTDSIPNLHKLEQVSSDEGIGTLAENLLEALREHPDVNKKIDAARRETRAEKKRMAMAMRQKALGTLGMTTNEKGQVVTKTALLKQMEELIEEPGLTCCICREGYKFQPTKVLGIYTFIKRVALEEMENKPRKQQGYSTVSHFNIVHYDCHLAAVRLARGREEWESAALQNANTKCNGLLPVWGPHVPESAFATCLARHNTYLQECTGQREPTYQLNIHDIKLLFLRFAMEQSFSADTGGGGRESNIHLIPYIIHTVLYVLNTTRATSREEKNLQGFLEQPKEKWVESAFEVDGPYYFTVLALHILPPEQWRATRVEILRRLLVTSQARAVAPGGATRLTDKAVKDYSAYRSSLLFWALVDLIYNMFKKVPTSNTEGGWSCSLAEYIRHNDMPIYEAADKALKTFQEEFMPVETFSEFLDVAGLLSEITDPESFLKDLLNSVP

Row | binding result [1] | binding result [2] | Binder | further results
1 | no binding | – | GST-RB (379-772) (other, UniProt P06400 379-772, looked up, Expressed in E. coli; not shown: glutathione S-transferase (GST) fusion partner of vector pGEX6P-1) MNTIQQLMMILNSASDQPSENLISYFNNCTVNPKESILKRVKDIGYIFKEKFAKAVGQGCVEIGSQRYKLGVRLYYRVMESMLKSEEERLSIQNFSKLLNDNIFHMSLLACALEVVMATYSRSTSQNLDSGTDLSFPWILNVLNLKAFDFYKVIESFIKAEGNLTREMIKHLERCEHRIMESLAWLSDSPLFDLIKQSKDREGPTDHLESACPLNLPLQNNHTAADMYLSPVRSPKKKGSTTRVNSTANAETQATSAFQTQKPLKSTSLSLFYKKVYRLAYLRLNTLCERLLSEHPELEHIIWTLFQHTLQNEYELMRDRHLDQIMMCSMYGICKVKNIDLKFKIIVTAYKDLPHAVQETFKRVLIKEEEYDSIIVFYNSVFMQRLKTNILQYA | –
2 | no binding | – | GST-RB (646-928) (other, UniProt P06400 646-928, looked up, Expressed in E. coli; not shown: glutathione S-transferase (GST) fusion partner of vector pGEX6P-1) SLSLFYKKVYRLAYLRLNTLCERLLSEHPELEHIIWTLFQHTLQNEYELMRDRHLDQIMMCSMYGICKVKNIDLKFKIIVTAYKDLPHAVQETFKRVLIKEEEYDSIIVFYNSVFMQRLKTNILQYASTRPPTLSPIPHIPRSPYKFPSSPLRIPGGNIYISPLKSPYKISEGLPTPTKMTPRSRILVSIGESFGTSEKFQKINQMVCNSDRVLKRSAEGSNPPKPLKKLRFDIEGSDEADGSKHLPGESKFQQKLAEMTSTRTRMQKQKMNDSMDTSNKEEK | –
3 | no binding | – | GST-RB (379-646) (other, UniProt P06400 379-646, looked up, Expressed in E. coli; not shown: glutathione S-transferase (GST) fusion partner of vector pGEX6P-1) MNTIQQLMMILNSASDQPSENLISYFNNCTVNPKESILKRVKDIGYIFKEKFAKAVGQGCVEIGSQRYKLGVRLYYRVMESMLKSEEERLSIQNFSKLLNDNIFHMSLLACALEVVMATYSRSTSQNLDSGTDLSFPWILNVLNLKAFDFYKVIESFIKAEGNLTREMIKHLERCEHRIMESLAWLSDSPLFDLIKQSKDREGPTDHLESACPLNLPLQNNHTAADMYLSPVRSPKKKGSTTRVNSTANAETQATSAFQTQKPLKSTS | –

The remaining lines, values behind:

Row | Binder | binding result [1] | binding result [2] | further results
4 | hypophosphorylated RB (other, human, UniProt P06400 2-928, looked up, hypophosphorylated (sites not given), also called RB (hypo-phosphorylated)) PPKTPRKTAATAAAAAAEPPAPPPPPPPEEDPEQDSGPEDLPLVRLEFEETEEPDFTALCQKLKIPDHVRERAWLTWEKVSSVDGVLGGYIQKKKELWGICIFIAAVDLDEMSFTFTELQKNIEISVHKFFNLLKEIDTSTKVDNAMSRLLKKYDVLFALFSKLERTCELIYLTQPSSSISTEINSALVLKVSWITFLLAKGEVLQMEDDLVISFQLMLCVLDYFIKLSPPMLLKEPYKTAVIPINGSPRTPRRGQNRSARIAKQLENDTRIIEVLCKEHECNIDEVKNVYFKNFIPFMNSLGLVTSNGLPEVENLSKRYEEIYLKNKDLDARLFLDHDKTLQTDSIDSFETQRTPRKSNLDEEVNVIPPHTPVRTVMNTIQQLMMILNSASDQPSENLISYFNNCTVNPKESILKRVKDIGYIFKEKFAKAVGQGCVEIGSQRYKLGVRLYYRVMESMLKSEEERLSIQNFSKLLNDNIFHMSLLACALEVVMATYSRSTSQNLDSGTDLSFPWILNVLNLKAFDFYKVIESFIKAEGNLTREMIKHLERCEHRIMESLAWLSDSPLFDLIKQSKDREGPTDHLESACPLNLPLQNNHTAADMYLSPVRSPKKKGSTTRVNSTANAETQATSAFQTQKPLKSTSLSLFYKKVYRLAYLRLNTLCERLLSEHPELEHIIWTLFQHTLQNEYELMRDRHLDQIMMCSMYGICKVKNIDLKFKIIVTAYKDLPHAVQETFKRVLIKEEEYDSIIVFYNSVFMQRLKTNILQYASTRPPTLSPIPHIPRSPYKFPSSPLRIPGGNIYISPLKSPYKISEGLPTPTKMTPRSRILVSIGESFGTSEKFQKINQMVCNSDRVLKRSAEGSNPPKPLKKLRFDIEGSDEADGSKHLPGESKFQQKLAEMTSTRTRMQKQKMNDSMDTSNKEEK | – | binds | –
5 | hyperphosphorylated RB (other, human, UniProt P06400 2-928, looked up, hyperphosphorylated (sites not given), also called P-RB) PPKTPRKTAATAAAAAAEPPAPPPPPPPEEDPEQDSGPEDLPLVRLEFEETEEPDFTALCQKLKIPDHVRERAWLTWEKVSSVDGVLGGYIQKKKELWGICIFIAAVDLDEMSFTFTELQKNIEISVHKFFNLLKEIDTSTKVDNAMSRLLKKYDVLFALFSKLERTCELIYLTQPSSSISTEINSALVLKVSWITFLLAKGEVLQMEDDLVISFQLMLCVLDYFIKLSPPMLLKEPYKTAVIPINGSPRTPRRGQNRSARIAKQLENDTRIIEVLCKEHECNIDEVKNVYFKNFIPFMNSLGLVTSNGLPEVENLSKRYEEIYLKNKDLDARLFLDHDKTLQTDSIDSFETQRTPRKSNLDEEVNVIPPHTPVRTVMNTIQQLMMILNSASDQPSENLISYFNNCTVNPKESILKRVKDIGYIFKEKFAKAVGQGCVEIGSQRYKLGVRLYYRVMESMLKSEEERLSIQNFSKLLNDNIFHMSLLACALEVVMATYSRSTSQNLDSGTDLSFPWILNVLNLKAFDFYKVIESFIKAEGNLTREMIKHLERCEHRIMESLAWLSDSPLFDLIKQSKDREGPTDHLESACPLNLPLQNNHTAADMYLSPVRSPKKKGSTTRVNSTANAETQATSAFQTQKPLKSTSLSLFYKKVYRLAYLRLNTLCERLLSEHPELEHIIWTLFQHTLQNEYELMRDRHLDQIMMCSMYGICKVKNIDLKFKIIVTAYKDLPHAVQETFKRVLIKEEEYDSIIVFYNSVFMQRLKTNILQYASTRPPTLSPIPHIPRSPYKFPSSPLRIPGGNIYISPLKSPYKISEGLPTPTKMTPRSRILVSIGESFGTSEKFQKINQMVCNSDRVLKRSAEGSNPPKPLKKLRFDIEGSDEADGSKHLPGESKFQQKLAEMTSTRTRMQKQKMNDSMDTSNKEEK | – | binds | –
6 | FLAG-tagged MTAF600 (3910-4851), Q5T4S7 3910-4851 (protein) FDYNLRRGAAAMREEVRQLMCLLTRDNPEATQQMNDLIIGKVSTALKSHWANPDLASSLQYEMLLLTDSISKEDSCWELRLRCALSLFLMAVNIKTPVVVENITLMCLRILQKLIKPPAPTSKKNKDVPVEALTTVKPYCNEIHAQAQLWLKRDPKASYDAWKKCLPIRGIDGNGKAPSKSELRHLYLTEKYVWRWKQFLSRRGKRTSPLDLKLGHNNWLRQVLFTPATQAARQAACTIVEALATIPSRKQQVLDLLTSYLDELSIAGECAAEYLALYQKLITSAHWKVYLAARGVLPYVGNLITKEIARLLALEEATLSTDLQQGYALKSLTGLLSSFVEVESIKRHFKSRLVGTVLNGYLCLRKLVVQRTKLIDETQDMLLEMLEDMTTGTESETKAFMAVCIETAKRYNLDDYRTPVFIFERLCSIIYPEENEVTEFFVTLEKDPQQEDFLQGRMPGNPYSSNEPGIGPLMRDIKNKICQDCDLVALLEDDSGMELLVNNKIISLDLPVAEVYKKVWCTTNEGEPMRIVYRMRGLLGDATEEFIESLDSTTDEEEDEEEVYKMAGVMAQCGGLECMLNRLAGIRDFKQGRHLLTVLLKLFSYCVKVKVNRQQLVKLEMNTLNVMLGTLNLALVAEQESKDSGGAAVAEQVLSIMEIILDESNAEPLSEDKGNLLLTGDKDQLVMLLDQINSTFVRSNPSVLQGLLRIIPYLSFGEVEKMQILVERFKPYCNFDKYDEDHSGDDKVFLDCFCKIAAGIKNNSNGHQLKDLILQKGITQNALDYMKKHIPSAKNLDADIWKKFLSRPALPFILRLLRGLAIQHPGTQVLIGTDSIPNLHKLEQVSSDEGIGTLAENLLEALREHPDVNKKIDAARRETRAEKKRMAMAMRQKALGTLGMTTNEKGQVVTKTALLKQMEELIEEPGLTCCICREGYKFQPTK | – | – | cells in S-phase at 24 hr after replating (FACS, stably transfected U2OS cells; control cells 64%) [3]: 37%
